{"source": "paper PMC11787825", "binders": {"B1": {"name": "PT1 (dsDNA)", "DNA 1": "GATTACGAATTCGAGCTCGGTACCCGGGGATC", "DNA 2": "CACACACACACACACACAGATCCCCGGGTACCGAGCTCGAATTCGTAATC", "modifications": "primer 3'-terminal dideoxycytidine (ddC)"}, "B2": {"name": "PT2 (dsDNA)", "DNA 1": "B1 DNA 1", "DNA 2": "B1 DNA 2 with A18C", "modifications": "primer 3'-terminal dideoxycytidine (ddC)"}, "B3": {"name": "PT3 (dsDNA)", "DNA 1": "GATTACGAATTCGAGCTCGGTACCCGGGGATCG", "DNA 2": "B1 DNA 2", "modifications": "phosphorothioate bonds at primer ends (after nt 1 and before the 3'-terminal G)"}}, "assay_in_all_cases": "cryo-EM structure", "key": {"[1]": {"target": "T1, HSV-1 Pol (PolΔN42);UL42 (UL42ΔC340) (Herpes simplex virus 1 (strain …, UniProt H9E937;H9E949 43-1235;2-340, |))"}, "[2]": {"target": "T1, HSV-1 Pol (PolΔN42);UL42 (UL42ΔC340)", "remark": "listed apart in the source"}, "[3]": {"target": "T1, HSV-1 Pol (PolΔN42);UL42 (UL42ΔC340)", "remark": "listed apart in the source"}}, "note": "Positions count from the first letter of the chain named. Read-outs that look alike come from different tables or passages of the source."}
{"binder": "B1", "values": [{"measurement": "binding result", "setting": "[1]", "result": "binds"}]}
{"binder": "B2", "values": [{"measurement": "binding result", "setting": "[2]", "result": "binds"}]}
{"binder": "B3", "values": [{"measurement": "binding result", "setting": "[3]", "result": "binds"}]}
